Laboratory results from PMC10175506, “Cryo-electron microscopy of the f1 filamentous phage reveals insights into viral infection and assembly” (Nature Communications, 2023).

B1: pVII, minor capsid protein of f1 phage (natural protein, UniProt P69534 1-33, looked up)
chain: MEQVADFDTIYQAMIQISVVLCFALGIIAGGQR
notes: the five N-terminal residues (MEQVA) are not visible in the map; Arg 33 is the C-terminal residue; Five copies stand in the round tip of the nanorod; source: expressed from helper plasmid pHP1YM in double-transformed host cells, assembled into f1-derived nanorods; nanorods purified from the supernatant (PEG, CsCl density gradient, anion exchange)
B2: pVI, minor capsid protein of f1 phage (natural protein, UniProt P69531 1-112, looked up)
chain: MPVLLGIPLLLRFLGFLLVTLFGYLLTFLKKGFGKIAIAISLFLALIIGLNSILVGYLSDISAQLPSDFVQGVQLILPSNALPCFYVILSVKAAIFIFDVKQKIVSYLDWDK
notes: density observed for the entire protein; Five copies stand in the pointy tip of the nanorod; source: expressed from helper plasmid pHP1YM in double-transformed host cells, assembled into f1-derived nanorods; nanorods purified from the supernatant (PEG, CsCl density gradient, anion exchange)
B3: pIX, minor capsid protein of f1 phage (natural protein, UniProt P69537 1-32, looked up)
chain: MSVLVYSFASFVLGWCLRSGITYFTRLMETSS
notes: Five copies stand in the round tip of the nanorod; source: expressed from helper plasmid pHP1YM in double-transformed host cells, assembled into f1-derived nanorods; nanorods purified from the supernatant (PEG, CsCl density gradient, anion exchange)

What was measured:
[1] = target: the molecule itself; assay: cryo-EM structure; purified f1-derived nanorods (529-nt ssDNA) plunge-frozen; map of the round tip, 5-fold symmetry applied, 2.8 Å
[2] = target: the molecule itself; assay: cryo-EM structure; purified f1-derived nanorods (529-nt ssDNA) plunge-frozen; map of the pointy tip, 5-fold symmetry applied, 2.9 Å
[3] = target: B1; assay: cryo-EM structure; purified f1-derived nanorods (529-nt ssDNA) plunge-frozen; map of the round tip, 5-fold symmetry applied, 2.8 Å; conditions: both partners purified

B1
stoichiometry N [1]: 5

B2
stoichiometry N [2]: 5

B3
binding result [3]: binds
